Assay results as given in US20090239794A1, “HCV F PROTEIN AND USES THEREOF” (priority 2004, published 2009).
Values joined by “and” are separate entries in the source; they are usually repeats but may differ in a detail not shown here. Equal values may be shown once.

Test system: C57Bl/6 mice
Assay: Protocol 1: ARFP immunization of mice, total anti-ARFP Ig ELISA
[1] = individual mice 31-45, 1st immunization (day 0), listed as ARFP
[2] = individual mice 31-45, 2nd immunization (day 13), listed as ARFP
[3] = individual mice 31-45, 3d immunization (day 35), listed as ARFP
[4] = individual mice 31-45, Sacrifice (day 53), listed as ARFP

B1: Fmut8Δ11: truncated recombinant HCV-1a F protein lacking the first 11 N-terminal residues shared with core; SEQ ID NO: 12; produced in E. coli (protein)
chain: PNVTPTVAHRTSSSRVAVRSLVEFTCCRAGALDWVCARRGRLPSGRNLEVDVSLSPRHVGPRAGPGLSPGTLGPSMAMRAADGRDGSCLPVALGLVGAPQTPGVGRAIWVRSSIPSRAASPTSWGTYRSSAPPLEALPGPWRMASGFWRTA
modifications: Hepatitis C virus
ARFP-specific Ig titer, mean+/−standard deviation (before the 2nd immunization): 10.00+/−27.08
anti-ARFP Ig titer, mean+/−standard deviation (day 35): 1400+/−419.5
anti-ARFP Ig titer, mean+/−standard deviation (day 53): 1547+/−199.6
Titer (anti-ARFP Ig ELISA) (individual mice 31-45, 1st immunization (day 0)): 0
ELISA OD410, serum dilution 1/50 [1]: 0.211 and 0.209 and 0.199 and 0.218 and 0.323 and 0.278 and 0.229 and 0.166 and 0.236 and 0.243 and 0.247 and 0.208 and 0.206 and 0.205 and 0.217
ELISA OD410, serum dilution 1/100 [1]: 0.128 and 0.115 (2×) and 0.174 and 0.208 and 0.186 and 0.171 and 0.152 and 0.161 (2×) and 0.145 and 0.134 and 0.132 and 0.142 and 0.127
ELISA OD410, serum dilution 1/200 [1]: 0.123 and 0.150 and 0.128 and 0.136 (2×) and 0.114 and 0.111 and 0.121 and 0.113 (2×) and 0.104 and 0.117 and 0.164 and 0.144 and 0.140
ELISA OD410, serum dilution 1/400 [1]: 0.132 and 0.164 and 0.114 and 0.118 and 0.116 and 0.121 and 0.133 and 0.115 and 0.104 and 0.110 and 0.120 and 0.128 and 0.191 and 0.138 and 0.126
ELISA OD410, serum dilution 1/800 [1]: 0.119 and 0.138 and 0.113 and 0.118 and 0.115 (2×) and 0.117 and 0.128 and 0.108 and 0.103 and 0.105 and 0.123 and 0.134 and 0.137 and 0.114
ELISA OD410, serum dilution 1/1600 [1]: 0.138 and 0.122 and 0.109 (2×) and 0.110 and 0.116 and 0.124 and 0.108 and 0.106 and 0.107 and 0.105 and 0.119 and 0.129 and 0.127 and 0.114
ELISA OD410, serum dilution 1/50 [2]: 0.732 and 0.272 and 0.750 and 0.293 and 0.231 and 0.965 and 0.137 and 0.916 and 0.132 and 0.13 and 0.186 and 0.049 and 0.046 and 0.048 and 0.045
ELISA OD410, serum dilution 1/100 [2]: 0.306 and 0.117 and 0.197 and 0.157 and 0.138 and 0.890 and 0.113 and 0.742 and 0.112 and 0.116 and 0.105 and 0.045 and 0.053 and 0.048 and 0.046
ELISA OD410, serum dilution 1/200 [2]: 0.165 and 0.113 and 0.166 and 0.127 and 0.160 and 0.815 and 0.108 and 0.441 and 0.107 (2×) and 0.111 and 0.102 and 0.798 and 0.116 and 0.123
ELISA OD410, serum dilution 1/400 [2]: 0.147 and 0.110 (2×) and 0.154 and 0.121 and 0.117 and 0.677 and 0.328 and 0.107 and 0.105 and 0.115 and 0.101 and 0.279 and 0.103 and 0.120
ELISA OD410, serum dilution 1/800 [2]: 0.124 and 0.106 (5×) and 0.137 and 0.123 and 0.125 and 0.454 and 0.105 and 0.219 and 0.099 and 0.097 and 0.273
ELISA OD410, serum dilution 1/1600 [2]: 0.120 (2×) and 0.118 (2×) and 0.119 and 0.590 and 0.104 and 0.171 and 0.105 and 0.108 and 0.103 and 0.096 and 0.223 and 0.110 (2×)
Titer (anti-ARFP Ig ELISA) [2]: 0 (13×) and 100 and 50
ELISA OD410, serum dilution 1/50 [3]: 3.652 and 3.551 and 3.142 and 3.623 and 3.509 and 3.334 and 3.530 and 3.887 and 3.464 and 3.796 and 1.628 and 1.467 and 2.140 and 2.336 and 2.453
ELISA OD410, serum dilution 1/100 [3]: 3.642 and 2.683 and 3.700 and 2.841 and 3.563 and 3.625 and 3.306 and >4.000 (2×) and 3.808 and 1.093 and 1.941 and 2.487 and 1.264 and 2.058
ELISA OD410, serum dilution 1/200 [3]: 3.616 and 2.046 and 3.630 and 2.088 and 3.556 and 3.596 and 2.436 and 3.957 and 3.541 and >4.000 and 3.494 and 2.657 and 1.722 and 0.993 and 1.772
ELISA OD410, serum dilution 1/400 [3]: 3.569 and 1.681 and 3.296 and 1.522 and 3.465 and 3.590 and 1.859 and 3.799 and 3.582 and 3.896 and 3.238 and 2.397 and 1.929 and 0.725 and 1.607
ELISA OD410, serum dilution 1/800 [3]: 3.434 and 1.072 and 3.166 and 0.937 and 3.213 and 3.438 and 1.297 and 3.425 and 3.053 and 2.776 and 2.442 and 2.015 and 1.185 and 0.508 and 1.517
ELISA OD410, serum dilution 1/1600 [3]: 3.521 and 0.641 and 3.190 and 0.590 and 3.181 and 3.455 and 0.931 and 3.139 and 2.783 and 1.989 and 1.713 and 1.578 and 0.957 and 0.408 and 1.453
Titer (anti-ARFP Ig ELISA) [3]: >1600 (12×) and 800 (2×) and 200
ELISA OD410, serum dilution 1/50 [4]: 2.023 and 2.008 and 1.658 and 1.054 and 1.709 and 1.411 and 1.314 and 1.736 and 2.224 and 1.741 and 1.006 and 1.424 and 1.613 and 1.434 and 1.373
ELISA OD410, serum dilution 1/100 [4]: 2.028 and 1.542 and 1.830 and 1.646 and 1.839 and 1.829 and 1.483 and 2.139 and 1.904 and 1.714 and 1.872 and 1.790 and 1.912 and 1.489 and 1.880
ELISA OD410, serum dilution 1/200 [4]: 2.202 and 2.602 and 1.876 and 1.837 and 1.805 and 2.091 and 1.948 and 2.168 and 2.422 and 1.540 and 1.773 and 1.658 and 1.724 and 1.471 and 2.006
ELISA OD410, serum dilution 1/400 [4]: 2.376 and 2.547 and 1.889 and 1.913 and 1.776 and 2.225 and 1.925 and 2.356 and 2.456 and 1.266 and 1.783 and 1.907 and 1.312 and 1.223 and 1.919
ELISA OD410, serum dilution 1/800 [4]: 2.490 and 1.574 and 1.874 and 1.814 and 1.617 and 2.117 and 1.671 and 1.664 and 2.196 and 0.928 and 1.825 and 2.059 and 1.478 and 1.136 and 2.197
ELISA OD410, serum dilution 1/1600 [4]: 2.209 and 1.970 and 2.157 and 1.987 and 1.674 and 2.269 and 1.574 and 1.671 and 1.659 and 0.648 and 1.749 and 2.062 and 1.233 and 1.157 and 1.672
Titer (anti-ARFP Ig ELISA) [4]: >1600 (14×) and 800
